The target of assay [1] is Rpk4 monomer (with Avi and hexa-histidine tags) (SARS-CoV-2 (Wuhan-Hu-1)).
For assay [2], the target named is Rpk9 monomer (with Avi and hexa-histidine tags) (SARS-CoV-2 (Wuhan-Hu-1)).

In the case of CR3022 IgG (antibody), the fold decrease of affinity against wild-type RBD in assay [1] and in assay [2] was less than 3.5 fold throughout.

Source of the values: patent US20250002907A1.
